B1: Proteinase K: an enzyme such as proteinase K (protein, UniProt P06873 106-384, looked up)
Proteinase K: AAQTNAPWGLARISSTSPGTSTYYYDESAGQGSCVYVIDTGIEASHPEFEGRAQMVKTYYYSSRDGNGHGTHCAGTVGSRTYGVAKKTQLFGVKVLDDNGSGQYSTIIAGMDFVASDKNNRNCPKGVVASLSLGGGYSSSVNSAAARLQSSGVMVAVAAGNNNADARNYSPASEPSVCTVGASDRYDRRSSFSNYGSVLDIFGPGTSILSTWIGGSTRSISGTSMATPHVAGLAAYLMTLGKTTAASACRYIADTANKGDLSNIPFGTVNLLAYNNYQA
B2: T4 DNA ligase: phage T4 ligase (protein, UniProt P00970 1-487, looked up)
DNA ligase: MILKILNEIASIGSTKQKQAILEKNKDNELLKRVYRLTYSRGLQYYIKKWPKPGIATQSFGMLTLTDMLDFIEFTLATRKLTGNAAIEELTGYITDGKKDDVEVLRRVMMRDLECGASVSIANKVWPGLIPEQPQMLASSYDEKGINKNIKFPAFAQLKADGARCFAEVRGDELDDVRLLSRAGNEYLGLDLLKEELIKMTAEARQIHPEGVLIDGELVYHEQVKKEPEGLDFLFDAYPENSKAKEFAEVAESRTASNGIANKSLKGTISEKEAQCMKFQVWDYVPLVEIYSLPAFRLKYDVRFSKLEQMTSGYDKVILIENQVVNNLDEAKVIYKKYIDQGLEGIILKNIDGLWENARSKNLYKFKEVIDVDLKIVGIYPHRKDPTKAGGFILESECGKIKVNAGSGLKDKAGVKSHELDRTRIMENQNYYIGKILECECNGWLKSDGRTDYVKLFLPIAIRLREDKTKANTFEDVFGDFHEVTGL
B3: RNase A: RNase A (protein, UniProt P61823 27-150, looked up)
Ribonuclease pancreatic: KETAAAKFERQHMDSSTSAASSSNYCNQMMKSRNLTKDRCKPVNTFVHESLADVQAVCSQKNVACKNGQTNCYQSYSTMSITDCRETGSSKYPNCAYKTTQANKHIIVACEGNPYVPVHFDASV

Key:
Assay type in all cases: biochemical, HIV-1
[1] = test system: viral DNA integrated into .phi.X174 target DNA; conditions: for Relative activity, % of standard: pretreatment/37° C./30 min, target DNA 10 μg/ml
Method: (§1) The chronically HIV-1 infected Molt IIIB human T cell line (HTLV IIIB virus strain) was the source of virus for cell-free infections. This human T cell line constitutively produces a low level of the HTLV-111B strain of HIV-1. Culture supernatant containing a high concentration of virus was prepared by incubating 300×10^6 Molt IIIB cells in 50 ml fresh RPMI 1640 medium containing 20% fetal calf serum and 10 ng of phorbol 12-myristate 13-acetate per ml for 20-24 hours. […] Cytoplasmic extracts (3 ml) were prepared 4-4.5 hours post-infection, by a modification of the procedure of Brown et al., Cell 49: 342-356 (1987).
(§2) At specified times after infection, cells were washed twice with buffer K (20 mM Hepes, pH 7.4, 150 mM KCl, 5 mM MgCl2, 1 mM dithiothreitol, […]) and then lysed at a concentration of 33×10^6 cells per ml in the same buffer containing 0.025% digitonin or 0.025% Triton X-100. Cells were extracted for 10 minutes at room temperature, and the lysate was centrifuged at 1000×g for 3 minutes, and is referred to as "cytoplasmic extract". Cytoplasmic extract was the source of viral DNA for analyses in the assays described below. The pellet from the initial low-speed centrifugation contained cell debris and intact nuclei and is called the "nuclear pellet". Cell extracts from uninfected SupT1 cells were prepared in the same manner.
DNA samples were layered on 0.8% agarose gels and electrophoresed at 1 V/cm for 15 hour in Tris/acetate/EDTA buffer. After electrophoresis, DNA was blotted by capillary action onto nitrocellulose (0.45 μm, Schleicher & Schuell). […]
Cytoplasmic extracts prepared from SupT1 cells 4 hours after infection with HIV-1 were incubated with exogenously added target DNA under integration reaction conditions. Products of the reactions were analyzed by Southern blot hybridization. The time course of integration into linear .phi.X174 DNA target was determined. […] Integration was detected by the shift of linear viral DNA on Southern blots from the characteristic 9.7-kilobase (kb) position to a position corresponding to viral DNA plus target DNA.

[2] = test system: linear viral DNA (circularization); conditions: pretreatment for 30 minutes prior to addition of ATP
Method: as §1
as §2, with “The pellet from the initial low-speed centrifugation contained cell debris and intact nuclei and is called the "nuclear pellet". Cell extracts from uninfected SupT1 cells were prepared in the same manner.” left out
Cell extracts were prepared from cells four to five hours after infection with HIV-1, using the above-described methods to yield fully functional viral preintegration complexes. […] Therefore, only LTR-containing DNA fragments are detected. […]

[3] = test system: preintegration complexes; experiment: Circularization mediated by partially purified preintegration complexes; conditions: pretreatment of uninfected SupT1 extracts
Method: Viral preintegration complexes were partially purified from cytoplasmic extracts by Sephacryl S400 gel filtration chromatography. Cytoplasmic extracts (0.8 ml) were loaded onto a 22-ml Sephacryl S400 (Pharmacia) column, 28 cm in height, equilibrated in buffer K containing 0.5% Triton X-100 at 4° C. Fractions (0.5 ml) were collected at a flow rate of approximately 0.2 ml/min.
The linear viral DNA present in cytoplasmic extracts is a part of the nucleoprotein preintegration complex that can be separated from the bulk of cellular proteins by gel filtration chromatography [Farnet and Haseltine, J. Virol., 65: 1910-1915 (1991)]. Preintegration complexes were partially purified by Sephacryl S400 column chromatography and tested for the ability to mediate the circularization of viral DNA. Cytoplasmic extracts (1 ml, vol) were fractionated by Sephacryl S-400 gel filtration chromatography as previously described. The void volume fractions of the column, containing the peak of viral DNA, were pooled (total volume, 1.5 ml) and incubated as follows with the results shown in FIG. 20. […]

[4] = test system: purified linear viral DNA; experiment: Ligation of purified linear viral DNA by phage T4 DNA ligase and Klenow fragment; conditions: T4 DNA ligase alone
Method: Linear viral DNA was purified from cytoplasmic extracts of cells 4 hours post-infection as described above. In FIG. 22, a purified linear viral DNA was added to cytoplasmic extracts from uninfected SupT1 cells and incubated at 37° C. for 45 minutes. The uninfected SupT1 cells used for the preparation of extracts were either untreated (lanes 3-11) or cultured in the presence of 10 ng/ml phorbol 12-myristate 13-acetate for six hours prior to extraction (lane 2). […] Lanes 2-11: reaction products following incubation of purified linear viral DNA in uninfected extracts containing 1 mM ATP (lanes 2 and 3), nothing added (lane 4), 1 mM dATP (lane 5), 1 mM UTP (lane 6), 1 mM CTP (lane 7), 1 mM GTP (lane 8), 1 mM ATPγS (lane 9), or 1 mM ADP (lane 10). Lane 11: uninfected SupT1 cell extract was treated with proteinase K for 10 minutes at 37° C., then linear viral DNA was added and incubation continued for 45 minutes. In FIG. 23, lanes 1, 2, 4 and 5: purified linear viral DNA was incubated with T4 DNA ligase (lane 1), T4 polynucleotide kinase and T4 DNA ligase (lane 2), Klenow fragment of E. coli DNA polymerase I and T4 DNA ligase (lane 3), or Klenow fragment, T4 polynucleotide kinase, and T4 DNA ligase (lane 4). Lanes 3 and 6: in vitro circularization reaction products generated in cell extracts, included as size standards. […]

Molecule	integration in vitro ([1]; pretreatment of extracts prior to incubation with target DNA)	Relative activity, % of standard [1]	circle formation [2]	ability of uninfected extracts to restore 1-LTR and simple 2-LTR circle formation [3]	ligation of the ends of linear viral DNA [4]
B1	abolished integration in vitro	0 % of standard	abolished circle formation	abolished the ability of the extracts to restore 1-LTR and simple 2-LTR circle formation	
B2					unable to ligate the ends of the linear DNA molecules
B3		100 % of standard			
